Results taken from the Immune Epitope Database (IEDB).
Each block holds one sequence with its values, some of them ahead of it.

Assays:
[1] = molecular target: HLA-A*23:01; assay: IEDB peptide-MHC binding, purified MHC/competitive/fluorescence; filed as Kd, often an IC50 or EC50 that approximates it; ≥ and ≤ were set here for values at or beyond the usual limits of such assays; conditions: source organism: Vibrio cholerae 2740-80
[2] = molecular target: HLA-A*31:01; assay: IEDB peptide-MHC binding, purified MHC/direct/fluorescence; filed as Kd, often an IC50 or EC50 that approximates it; ≥ and ≤ were set here for values at or beyond the usual limits of such assays
[3] = molecular target: HLA-A*01:01; assay: as above
[4] = molecular target: HLA-A*69:01; assay: as above
[5] = molecular target: HLA-B*35:01; assay: as above; conditions: source organism: Pseudomonas putida
[6] = molecular target: HLA-B*15:01; assay: as above
[7] = molecular target: HLA-A*26:01; assay: as above
[8] = molecular target: HLA-C*03:03; assay: as above
[9] = molecular target: HLA-C*05:01; assay: as above; conditions: source organism: Yersinia pestis Nepal516
[10] = molecular target: HLA-C*12:03; assay: as above; conditions: source organism: Yersinia pestis Nepal516
[11] = molecular target: HLA-C*07:02; assay: as above
[12] = molecular target: HLA-A*02:01; assay: IEDB peptide-MHC binding, purified MHC/competitive/fluorescence; filed as Kd, often an IC50 or EC50 that approximates it; ≥ and ≤ were set here for values at or beyond the usual limits of such assays
[13] = molecular target: HLA-B*39:01; assay: as above
[14] = molecular target: HLA-B*51:01; assay: as above; conditions: source organism: Yersinia pestis Nepal516
[15] = molecular target: HLA-B*35:01; assay: as above; conditions: source organism: Yersinia pestis Nepal516
[16] = molecular target: HLA-B*15:01; assay: as above; conditions: source organism: Yersinia pestis Nepal516
[17] = molecular target: HLA-B*08:01; assay: IEDB peptide-MHC binding, purified MHC/direct/fluorescence; filed as Kd, often an IC50 or EC50 that approximates it; ≥ and ≤ were set here for values at or beyond the usual limits of such assays
[18] = molecular target: HLA-A*26:02; assay: as above
[19] = molecular target: HLA-B*57:01; assay: as above
[20] = molecular target: HLA-B*58:01; assay: as above
[21] = molecular target: HLA-C*15:02; assay: as above
[22] = molecular target: HLA-B*27:05; assay: as above
[23] = molecular target: HLA-A*02:01; assay: as above
[24] = molecular target: HLA-B*07:02; assay: as above
[25] = molecular target: HLA-A*30:01; assay: as above
[26] = molecular target: HLA-A*03:01; assay: as above
[27] = molecular target: HLA-A*11:01; assay: as above
[28] = molecular target: HLA-B*40:01; assay: as above
[29] = molecular target: HLA-A*24:03; assay: as above
[30] = molecular target: HLA-A*11:01; assay: IEDB peptide-MHC binding, purified MHC/competitive/fluorescence; filed as Kd, often an IC50 or EC50 that approximates it; ≥ and ≤ were set here for values at or beyond the usual limits of such assays
[31] = molecular target: HLA-B*08:01; assay: as above; conditions: source organism: Salmonella enterica subsp. enterica serovar Typhi
[32] = molecular target: HLA-B*18:01; assay: IEDB peptide-MHC binding, purified MHC/direct/fluorescence; filed as Kd, often an IC50 or EC50 that approximates it; ≥ and ≤ were set here for values at or beyond the usual limits of such assays
[33] = molecular target: HLA-C*14:02; assay: as above; conditions: source organism: Burkholderia mallei SAVP1
[34] = molecular target: HLA-B*46:01; assay: IEDB peptide-MHC binding, purified MHC/competitive/fluorescence; filed as Kd, often an IC50 or EC50 that approximates it; ≥ and ≤ were set here for values at or beyond the usual limits of such assays; conditions: source organism: Yellow fever virus
[35] = molecular target: HLA-B*15:17; assay: IEDB peptide-MHC binding, purified MHC/direct/fluorescence; filed as Kd, often an IC50 or EC50 that approximates it; ≥ and ≤ were set here for values at or beyond the usual limits of such assays; conditions: source organism: Entamoeba histolytica
[36] = molecular target: HLA-A*68:02; assay: as above; conditions: source organism: Entamoeba histolytica
[37] = molecular target: HLA-B*08:02; assay: as above
[38] = molecular target: HLA-B*48:01; assay: as above
[39] = molecular target: HLA-B*46:01; assay: as above
[40] = molecular target: HLA-B*44:02; assay: as above; conditions: source organism: Yellow fever virus strain Ghana/Asibi/1927
[41] = source organism: Pseudomonas putida
[42] = source organism: Yersinia pestis Nepal516
[43] = source organism: Chelativorans sp. BNC1
[44] = source organism: Aggregatibacter actinomycetemcomitans
[45] = source organism: Vibrio vulnificus
[46] = source organism: Salmonella enterica subsp. enterica serovar Typhi
[47] = source organism: Orthohantavirus hantanense
[48] = source organism: Yellow fever virus
[49] = source organism: Entamoeba histolytica
[50] = source organism: Yellow fever virus strain Ghana/Asibi/1927

Sequence: FVQGVIWNI
Kd [1]: 36.5 nM

Kd [2, 41]: 1150 nM | Kd [3, 41]: 670 nM | Kd [4, 41]: 32.8 nM | Kd [5]: 171 nM | Kd [6, 41]: 90.6 nM | Kd [7, 41]: 5.41 nM
Sequence: HTAEIQQFF

Sequence: FAFKLSFAI
Kd [8, 42]: 4 nM | Kd [9]: ≥ 20000 nM | Kd [10]: ≤ 1 nM | Kd [11, 42]: ≥ 20000 nM | Kd [12, 42]: 1010 nM | Kd [13, 42]: 3000 nM | Kd [14]: ≥ 20000 nM | Kd [15]: 65 nM | Kd [16]: ≥ 20000 nM

Sequence: FIRWRFYLL
Kd ([11]; source organism: Vibrio cholerae 2740-80): 4080 nM | Kd ([17]; source organism: Vibrio cholerae V52): 216 nM

Sequence: ETLETLLLL
Kd ([18]; source organism: Dengue virus 2 Thailand/16681/84): 55 nM

Sequence: WALDVPMYF
Kd [8, 43]: ≤ 1 nM | Kd ([19]; source organism: Brucella suis 1330): 34 nM | Kd ([20]; source organism: Aurantimonas manganoxydans): 3.6 nM | Kd [21, 43]: 179 nM

Kd [22, 44]: ≥ 20000 nM | Kd [23, 44]: ≥ 20000 nM | Kd [24, 44]: ≥ 20000 nM | Kd [2, 44]: 60.7 nM | Kd [25, 44]: 0.23 nM | Kd [3, 44]: ≥ 20000 nM | Kd [20, 44]: ≥ 20000 nM | Kd [4, 44]: ≥ 20000 nM | Kd [26, 44]: 2990 nM | Kd [27, 44]: 127 nM | Kd [17, 44]: ≥ 20000 nM | Kd [6, 44]: ≥ 20000 nM | Kd [28, 44]: ≥ 20000 nM | Kd [29, 44]: ≥ 20000 nM | Kd [7, 44]: ≥ 20000 nM
Sequence: TTRAWFDKK

Sequence: RTLASGLIY
Kd [30, 42]: 67.3 nM

Sequence: QSPQPVRVK
Kd [22, 45]: ≥ 20000 nM | Kd [23, 45]: ≥ 20000 nM | Kd [24, 45]: ≥ 20000 nM | Kd [25, 45]: 3750 nM | Kd [3, 45]: ≥ 20000 nM | Kd [20, 45]: ≥ 20000 nM | Kd [4, 45]: ≥ 20000 nM | Kd [26, 45]: 19300 nM | Kd [27, 45]: 12200 nM | Kd [17, 45]: ≥ 20000 nM | Kd [6, 45]: ≥ 20000 nM | Kd [28, 45]: ≥ 20000 nM | Kd [29, 45]: ≥ 20000 nM | Kd [7, 45]: ≥ 20000 nM

Sequence: MMLSPLVAL
Kd ([11]; source organism: Salmonella enterica subsp. enterica serovar Typhi str. CT18): 858 nM | Kd [12, 46]: 0.2 nM | Kd [13, 46]: 0.8 nM | Kd [31]: 960 nM

Sequence: EYVGKTVWF
Kd ([25]; source organism: West Nile virus SPU116/89): ≥ 20000 nM

Sequence: TLYCVHQR
Kd ([30]; source organism: Human immunodeficiency virus 1): 111 nM

Sequence: WWLEYTASF
Kd ([21]; source organism: Burkholderia mallei SAVP1): ≥ 20000 nM | Kd ([32]; source organism: Burkholderia mallei ATCC 23344): 68 nM | Kd [33]: 77 nM

Sequence: SGIDTNAYY
Kd ([18]; source organism: West Nile virus strain PTRoxo): ≥ 20000 nM | Kd ([7]; source organism: West Nile virus): ≥ 20000 nM

Sequence: RLNLKTSFH
Kd ([25]; source organism: Sapporo rat virus): 100 nM | Kd [26, 47]: 407 nM | Kd [27, 47]: 1350 nM

Sequence: EAMDTISVF
Kd [18, 48]: ≤ 1 nM | Kd [34]: 530 nM

Sequence: DFGYATMAK
Kd [22, 49]: ≥ 20000 nM | Kd [19, 49]: ≥ 20000 nM | Kd [35]: ≥ 20000 nM | Kd [23, 49]: ≥ 20000 nM | Kd [24, 49]: ≥ 20000 nM | Kd [2, 49]: ≥ 20000 nM | Kd [18, 49]: ≥ 20000 nM | Kd [3, 49]: ≥ 20000 nM | Kd [20, 49]: ≥ 20000 nM | Kd [36]: ≥ 20000 nM | Kd [37, 49]: ≥ 20000 nM | Kd [26, 49]: 1600 nM | Kd [27, 49]: 836 nM | Kd [38, 49]: ≥ 20000 nM | Kd [32, 49]: ≥ 20000 nM | Kd [17, 49]: ≥ 20000 nM | Kd [6, 49]: ≥ 20000 nM | Kd [28, 49]: ≥ 20000 nM | Kd [7, 49]: ≥ 20000 nM | Kd [39, 49]: ≥ 20000 nM

Sequence: AIHPFALLL
Kd [22, 50]: ≥ 20000 nM | Kd [19, 50]: ≥ 20000 nM | Kd [24, 50]: ≥ 20000 nM | Kd [40]: ≥ 20000 nM | Kd [2, 50]: ≥ 20000 nM | Kd [3, 50]: ≥ 20000 nM | Kd [21, 48]: 99 nM | Kd [37, 48]: ≥ 20000 nM | Kd [38, 50]: ≥ 20000 nM | Kd [6, 50]: ≥ 20000 nM | Kd [39, 50]: ≥ 20000 nM
